Key:
[1] = target: T1, GSTcJun(Ala63/73), GST fused to c-Jun AA 1-223 with Ser 63 and Ser 73 converted to alanines
T1 chain: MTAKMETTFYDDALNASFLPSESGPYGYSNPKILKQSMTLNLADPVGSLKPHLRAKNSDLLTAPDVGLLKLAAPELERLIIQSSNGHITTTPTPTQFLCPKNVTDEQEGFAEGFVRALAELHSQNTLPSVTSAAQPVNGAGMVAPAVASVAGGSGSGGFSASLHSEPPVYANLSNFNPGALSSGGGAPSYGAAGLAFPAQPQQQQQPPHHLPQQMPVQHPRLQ

[2] = target: myelin basic protein (MBP)
[3] = target: GSTcJun(wt), glutathione-S-transferase fused to c-Jun AA 1-223 [GST: P08515]
[4] = target: T2, GST-cJun(1-79), GST fused to c-Jun AA 1-79
T2 chain: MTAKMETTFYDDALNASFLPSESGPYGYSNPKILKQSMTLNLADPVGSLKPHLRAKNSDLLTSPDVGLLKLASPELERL

[5] = target: T3, GST-cJun(43-223), GST fused to c-Jun AA 43-223
T3 chain: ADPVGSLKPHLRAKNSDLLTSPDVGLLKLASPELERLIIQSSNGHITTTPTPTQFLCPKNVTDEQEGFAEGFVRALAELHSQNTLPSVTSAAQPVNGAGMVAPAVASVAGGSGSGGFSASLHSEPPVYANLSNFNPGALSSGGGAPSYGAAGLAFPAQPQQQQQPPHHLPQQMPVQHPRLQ

[6] = target: GSTvJun, GST fused to the region of v-Jun equivalent to chicken c-Jun AA 1-144 [GST: P08515]
[7] = target: GAL4-cJun(56-223) (yeast; human), P04386; assay: cell-based or functional assay
[8] = target: GAL4-cJun(43-223) (yeast; human), P04386; assay: cell-based or functional assay
[9] = target: GAL4-cJun(33-223) (yeast; human), P04386; assay: cell-based or functional assay
[10] = target: T4, GSTcJun(33-223), GST fused to c-Jun AA 33-223
T4 chain: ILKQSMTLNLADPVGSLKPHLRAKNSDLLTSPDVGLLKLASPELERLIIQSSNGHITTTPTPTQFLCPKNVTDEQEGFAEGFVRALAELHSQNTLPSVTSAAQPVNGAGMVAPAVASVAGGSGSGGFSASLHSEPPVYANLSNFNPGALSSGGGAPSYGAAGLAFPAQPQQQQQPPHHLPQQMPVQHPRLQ

B1: epitope-tagged JNK1 (Flag epitope Asp-Tyr-Lys-Asp-Asp-Asp-Asp-Lys inserted between codons 1 and 2), expressed in COS cells (protein)
chain: MDYKDDDDKSRSKRDNNFYSVEIGDSTFTVLKRYQNLKPIGSGAQGIVCAAYDAILERNVAIKKLSRPFQNQTHAKRAYRELVLMKCVNHKNIIGLLNVFTPQKSLEEFQDVYIVMELMDANLCQVIQMELDHERMSYLLYQMLCGIKHLHSAGIIHRDLKPSNIVVKSDCTLKILDFGLARTAGTSFMMTPYVVTRYYRAPEVILGMGYKENVDLWSVGCIMGEMVCHKILFPGRDYIDQWNKVIEQLGTPCPEFMKKLQPTVRTYVENRPKYAGYSFEKLFPDVLFPADSEHNKLKASQARDLLSKMLVIDASKRISVDEALQHPYINVWYDPSEAEAPPPKIPDKQLDEREHTIEEWKELIYKEVMDLEERTKNGVIRGQPSPLAQVQQ
phosphorylation, immunecomplex kinase assay [1]: Replacement of Ser-63 and Ser-73 with Ala also decreased the observed phosphorylation | phosphorylation, immunecomplex kinase assay [2]: both GST-vJun and myelin basic protein (MBP) are very poor substrates for JNK1 | phosphorylation, immunecomplex kinase assay [3]: JNK1 efficiently phosphorylated GST-cJun fusion proteins containing residues 1-223 and 1-79 of c-Jun | phosphorylation, immunecomplex kinase assay [4]: JNK1 efficiently phosphorylated GST-cJun fusion proteins containing residues 1-223 and 1-79 of c-Jun | phosphorylation, immunecomplex kinase assay [5]: a deletion of c-Jun NH2-terminal sequences including the d-domain (residues 1-42) caused a marked decrease in phosphorylation by JNK1 | phosphorylation, immunecomplex kinase assay [6]: both GST-vJun and myelin basic protein (MBP) are very poor substrates for JNK1

B2: c-Jun N-terminal protein kinase (JNK), 46 kD form, endogenous kinase from cell extracts, P45983-2 1-384 (enzyme)
chain: MSRSKRDNNFYSVEIGDSTFTVLKRYQNLKPIGSGAQGIVCAAYDAILERNVAIKKLSRPFQNQTHAKRAYRELVLMKCVNHKNIIGLLNVFTPQKSLEEFQDVYIVMELMDANLCQVIQMELDHERMSYLLYQMLCGIKHLHSAGIIHRDLKPSNIVVKSDCTLKILDFGLARTAGTSFMMTPYVVTRYYRAPEVILGMGYKENVDLWSVGCIMGEMVCHKILFPGRDYIDQWNKVIEQLGTPCPEFMKKLQPTVRTYVENRPKYAGYSFEKLFPDVLFPADSEHNKLKASQARDLLSKMLVIDASKRISVDEALQHPYINVWYDPSEAEAPPPKIPDKQLDEREHTIEEWKELIYKEVMDLEERTKNGVIRGQPSPLAQVQQ
Ha-Ras responsiveness, CAT activity of 5xGAL4-Elb-CAT reporter in F9 cells (fold induction) [7]: 5.2 | UV responsiveness, CAT activity of 5xGAL4-Elb-CAT reporter in F9 cells [7]: 1.5 fold | Ha-Ras responsiveness, CAT activity of 5xGAL4-Elb-CAT reporter in F9 cells (fold induction) [8]: 5.2 | UV responsiveness, CAT activity of 5xGAL4-Elb-CAT reporter in F9 cells [8]: 1.5 fold | Ha-Ras responsiveness, CAT activity of 5xGAL4-Elb-CAT reporter in F9 cells (fold induction) [9]: 9.8

B3: c-Jun N-terminal protein kinase (JNK), 46 kD form, endogenous kinase from cell extracts (protein)
chain: B2 chain
phosphorylation in solid-phase kinase assay [1]: Phosphorylation of this protein was considerably lower than that of GSTcJun(wt) | phosphorylation of the GSTcJun fusion protein by bound kinase [10]: Removal of AA 1-32 decreased phosphorylation of GSTcJun but had only a small effect on kinase binding
